Drawing on patent US20060084593A1, this text covers % inhibition of the interaction by heparin dp16 (125 nM) for 1 substance.

The experiment concerns the target gp120/CD4 complex (human immunodeficiency virus (HIV), hxbc2) (UniProt P04578). Kind of experiment: SPR (Biacore); 48d immobilized; gp120 50 nM, CD4 250 nM, heparin dp16 at 125 nM (0.6 µg/ml) as inhibitor. In general terms: Surface plasmon resonance follows binding to a sensor surface in real time, without labels.

Consider “antibody 48d specific for the CD4i epitope”, for which the % inhibition of the interaction by heparin dp16 (125 nM) was in the range of 90 to 100%.
